Measured values reported in US20040265880A1, “Genomic and proteomic approaches for the development of cell culture medium” (Sigma-Aldrich Co., priority 2003, published 2004).

Test system: HEK-293 cells
Experiment: Resazurin high throughput proliferation assay, HEK-293
Format: cell-based, human
Conditions: versus base medium with 1% FBS; each ligand at three concentrations
Experimental: Resazurin is a metabolic dye which is converted to a fluorescent product. The greater the amount of the fluorescent product that is generated, the more metabolism, which directly correlates with cell number.
In this assay, resazurin was added to HEK-293 cells plated in each well of a 24-well assay plate containing a test medium containing one of the 16 ligands corresponding to the positive growth factors/cytokines and incubated at 37° C. After a 30 minute incubation, the plate was analyzed on a standard fluorescence plate reader. A higher RFU value from the plate reader translates to a higher cell density in the wells.
Briefly, the 16 ligands corresponding to positive growth factor/cytokine receptors were tested in the resazurin assay, each ligand at three different concentrations. […]
Cells were plated in each well of a 24-well tissue culture treated plate containing 1 ml of a base medium. […] After sufficient incubation time to convert some of the resazurin, the fluorescence was measured on a HTS 7000 Plus BioAssay Reader (Perkin-Elmer, Boston, Mass.). Readings were taken once a day until the culture was confluent (typically about 4 days). A plate with base medium only (no cells) was used as a blank and subtracted from the RFU reading to establish the final RFU values.

B1: oncostatin M (protein, UniProt P13725 26-221, looked up)
Oncostatin-M: AAIGSCSKEYRVLLGQLQKQTDLMQDTSRLLDPYIRIQGLDVPKLREHCRERPGAFPSEETLRGLGRRGFLQTLNATLGCVLHRLADLEQRLPKAQDLERSGLNIEDLEKLQMARPNILGLRNNIYCMAQLLDNSDTAEPTKAGRGASQPPTPTPASDAFQRKLEGCRFLHGYHRFMHSVGRVFSKWGESPNRSRR
notes: ligand of oncostatin M receptor
For B1, the “effect on HEK-293 proliferation (RFU, resazurin)” value was “significant effect”.
